The values that follow are results of earlier work, collected in PMC4589137.

By pKd is commonly meant the negative decadic logarithm of the Kd, by convention in mol/L.

In this data set the target is α-melanocyte stimulating hormone (α-MSH) (UniProt P01189).

pKd: −log10 of the molar value.

For “melanocortin 1 receptor (MC1R) (from UniProt Q01727)”, the negative logarithm of the Kd (pKd) was 9.40.
